Assay results reported in US20260167721A1 (ABLEXIS, published 2026).

B1: CD3 × CD33-BspAb72 (bispecific antibody)
chain 1: EVQLVESGGGLVQPGGSLRLSCAASGFTFSSYSMNWVRQAPGKCLEWVSYISSSSSTIYYADSVKGRFTISRDNAKNSLYLQMNSLRDEDTAVYYCARDGPVDYGMDVWGQGTTVTVSSGGGGSGGGGSGGGGSGGGGSSYELTQPPSVSVSPGQTARITCSGDALPKQYTYWYQQKPGQAPVLVIYKDSERPSGIPERFSGSSSGTTVTLTISGVQAEDEADYYCQSADSSGTYRVFGCGTKLTVLDKTHTCPPCPAPEFEGGPSVFLFPPKPKDTLMISRTPEVTCVVVDVSHEDPEVKFNWYVDGVEVHNAKTKPREEQYNSTYRVVSVLTVLHQDWLNGKEYKCKVSNKALPASIEKTISKAKGQPREPQVYTLPPCREEMTKNQVSLWCLVKGFYPSDIAVEWESNGQPENNYKTTPPVLDSDGSFFLYSKLTVDKSRWQQGNVFSCSVMHEALHNHYTQKSLSLSPGK
chain 2: EVQLVQSGAEVKKPGSSVKVSCKASGYTITDSNIHWVRQAPGQSLEWIGYIYPYNGGTDYNQKFKNRATLTVDNPTNTAYMELSSLRSEDTAFYYCVNGNPWLAYWGQGTLVTVSSASTKGPSVFPLAPSSKSTSGGTAALGCLVKDYFPEPVTVSWNSGALTSGVHTFPAVLQSSGLYSLSSVVTVPSSSLGTQTYICNVNHKPSNTKVDKRVEPKSCDKTHTCPPCPAPEFEGGPSVFLFPPKPKDTLMISRTPEVTCVVVDVSHEDPEVKFNWYVDGVEVHNAKTKPREEQYNSTYRVVSVLTVLHQDWLNGKEYKCKVSNKALPASIEKTISKAKGQPREPQVCTLPPSREEMTKNQVSLSCAVKGFYPSDIAVEWESNGQPENNYKTTPPVLDSDGSFFLVSKLTVDKSRWQQGNVFSCSVMHEALHNRFTQKSLSLSPGK
chain 3: DIQLTQSPSTLSASVGDRVTITCRASESLDNYGIRFLTWFQQKPGKAPKLLMYAASNQGSGVPSRFSGSGSGTEFTLTISSLQPDDFATYYCQQTKEVPWSFGQGTKVEVKRTVAAPSVFIFPPSDEQLKSGTASVVCLLNNFYPREAKVQWKVDNALQSGNSQESVTEQDSKDSTYSLSSTLTLSKADYEKHKVYACEVTHQGLSSPVTKSFNRGEC
B2: CD3 × CD33-BspAb76 (bispecific antibody)
chain 1: EVQLVESGGGLVKPGGSLRLSCAASGFTFSSYSMNWVRQAPGKCLEWVSSISRRSGYIYYADSVKGRFTLSRDNAKKSLYLQMNSLRAEDTAVYYCARDLNWAFDYWGQGTLVTVSSGGGGSGGGGSGGGGSGGGGSNFMLTQPHSVSESPGKTVTISCTRSSGSIASNYVQWYQQRPGSSPTTVIYEDNHRPSGVPDRFSGSIDSSSNSASLTIAGLKTEDEADYYCQSSDSSNVVFGCGTKLTVLDKTHTCPPCPAPEFEGGPSVFLFPPKPKDTLMISRTPEVTCVVVDVSHEDPEVKFNWYVDGVEVHNAKTKPREEQYNSTYRVVSVLTVLHQDWLNGKEYKCKVSNKALPASIEKTISKAKGQPREPQVYTLPPCREEMTKNQVSLWCLVKGFYPSDIAVEWESNGQPENNYKTTPPVLDSDGSFFLYSKLTVDKSRWQQGNVFSCSVMHEALHNHYTQKSLSLSPGK
chain 2: B1 chain 2
chain 3: B1 chain 3
B3: CD3 × CD33-BspAb73 (bispecific antibody)
scFv-Fc: EVQLVESGGGLVKPGGSLRLSCAASGFTFSSYSMNWVRQAPGKCLEWVSSVNSRGSYIYYADSVKGRFTISRDNAKDSLYLQMNSLRADDTAVYYCARDRRELLLDYWGQGTLVTVSSGGGGSGGGGSGGGGSGGGGSSYELTQPPSVSVSPGQTARITCSGDALPKKYAYWYQQKSGQAPVLVIYEDSKRPSGIPERFSGSSSGTMATLTISGAQVEDEADYYCYSTDSSGNHSWVFGCGTKLTVLGGGGSDKTHTCPPCPAPEFEGGPSVFLFPPKPKDTLMISRTPEVTCVVVDVSHEDPEVKFNWYVDGVEVHNAKTKPREEQYNSTYRVVSVLTVLHQDWLNGKEYKCKVSNKALPASIEKTISKAKGQPREPQVYTLPPCREEMTKNQVSLWCLVKGFYPSDIAVEWESNGQPENNYKTTPPVLDSDGSFFLYSKLTVDKSRWQQGNVFSCSVMHEALHNHYTQKSLSLSPGK
heavy: B1 chain 2
light: B1 chain 3
notes: KiH heterodimer
B4: CD3 × CD33-BspAb77 (bispecific antibody)
chain 1: EVQLVESGGGLVKPGGSLRLSCAASGFTFSTYIMNWVRQAPGKCLEWVSSISSSRSYIYYADSVKGRFTISRDNAKNSLYLQMNSLRAEDTAVYYCAREDRYRLFFDYWGQGTLVTVSSGGGGSGGGGSGGGGSGGGGSNFMLTQPHSVSESPGKTVTISCTRSSGSIASNYVQWYQQRPGSSPTTVIYEDNQRPSGVPDRFSGSIDSSSNSASLTISGLKTEDEADYYCQSYDSSNRVFGCGTKLTVLDKTHTCPPCPAPEFEGGPSVFLFPPKPKDTLMISRTPEVTCVVVDVSHEDPEVKFNWYVDGVEVHNAKTKPREEQYNSTYRVVSVLTVLHQDWLNGKEYKCKVSNKALPASIEKTISKAKGQPREPQVYTLPPCREEMTKNQVSLWCLVKGFYPSDIAVEWESNGQPENNYKTTPPVLDSDGSFFLYSKLTVDKSRWQQGNVFSCSVMHEALHNHYTQKSLSLSPGK
chain 2: B1 chain 2
chain 3: B1 chain 3
B5: CD3 × CD33-BspAb75 (bispecific antibody)
scFv-Fc: EVQLVESGGGLVKPGGSLRLSCAASGFTFSSYSMNWVRQAPGKCLEWVSSISRRSGYIYYADSVKGRFTLSRDNAKKSLYLQMNSLRAEDTAVYYCARDLNWAFDYWGQGTLVTVSSGGGGSGGGGSGGGGSGGGGSNFMLTQPHSVSESPGKTVTISCTRSSGSIASNYVQWYQQRPGSSPTTVIYEDNHRPSGVPDRFSGSIDSSSNSASLTIAGLKTEDEADYYCQSYDSSNVVFGCGTKLTVLGGGGSDKTHTCPPCPAPEFEGGPSVFLFPPKPKDTLMISRTPEVTCVVVDVSHEDPEVKFNWYVDGVEVHNAKTKPREEQYNSTYRVVSVLTVLHQDWLNGKEYKCKVSNKALPASIEKTISKAKGQPREPQVYTLPPCREEMTKNQVSLWCLVKGFYPSDIAVEWESNGQPENNYKTTPPVLDSDGSFFLYSKLTVDKSRWQQGNVFSCSVMHEALHNHYTQKSLSLSPGK
heavy: B1 chain 2
light: B1 chain 3
notes: KiH heterodimer
B6: CD3 × CD33-BspAb65 (bispecific antibody)
chain 1: NFMLTQPHSVSESPGKTVTIACTRSSGSIASNYVQWYQQRPGSSPTTVIYEDNQRPSGVPDRFSGSIDSSSNSASLTISGLKTEDEADYYCQSYDSSNQVFGCGTKLTVLGGGGSGGGGSGGGGSGGGGSQVTLKESGPGILQPSQTLSLTCSFSGFSLSTFGMGVGWIRQPSGKCLEWLAHIWWDDDKYYNPALKSRLTISKDTSKNQVFLKIANVDTADTATYYCARLGYYPYWFFDVWGTGTTVTVSSDKTHTCPPCPAPEFEGGPSVFLFPPKPKDTLMISRTPEVTCVVVDVSHEDPEVKFNWYVDGVEVHNAKTKPREEQYNSTYRVVSVLTVLHQDWLNGKEYKCKVSNKALPASIEKTISKAKGQPREPQVYTLPPCREEMTKNQVSLWCLVKGFYPSDIAVEWESNGQPENNYKTTPPVLDSDGSFFLYSKLTVDKSRWQQGNVFSCSVMHEALHNHYTQKSLSLSPGK
chain 2: B1 chain 2
chain 3: B1 chain 3
B7: CD3 × CD33-BspAb62 (bispecific antibody)
chain 1: NFMLTQPHSVSESPGKTVTISCTRSSGSIASNYVQWYQQRPGSSPTTVIYEDNQRPSGVPDRFSGSIDSSSNSASLTISGLKTEDEADYYCQSYDSSNHVFGCGTKLTVLGGGGSGGGGSGGGGSGGGGSEVQLVESGGGLVQPGGSLRLSCAASGFTFSRYSMNWVRQAPGKCLEWVSYISSSSSSIYYADSVKGRFTISRDNAKNSLYLQMNSLRDEDTAVYYCARDRRATLDYWGQGTLVTVSSDKTHTCPPCPAPEFEGGPSVFLFPPKPKDTLMISRTPEVTCVVVDVSHEDPEVKFNWYVDGVEVHNAKTKPREEQYNSTYRVVSVLTVLHQDWLNGKEYKCKVSNKALPASIEKTISKAKGQPREPQVYTLPPCREEMTKNQVSLWCLVKGFYPSDIAVEWESNGQPENNYKTTPPVLDSDGSFFLYSKLTVDKSRWQQGNVFSCSVMHEALHNHYTQKSLSLSPGK
chain 2: B1 chain 2
chain 3: B1 chain 3

What follows are binders tested against T1, human CD3 (TCR/CD3 complex on the cell surface) (human, UniProt P07766 23-207; P04234 22-171; P09693 23-182) (assay: flow cytometry, Pan-T cells, 1 ug/mL).
T1 construct: whole, on cells; Native CD3 on human Pan-T cells or Jurkat wild-type cells; also called CD3 on Pan-T cells; CD3 on Jurkat WT cells
T1 sequence (P07766 23-207, chain 1 of 3): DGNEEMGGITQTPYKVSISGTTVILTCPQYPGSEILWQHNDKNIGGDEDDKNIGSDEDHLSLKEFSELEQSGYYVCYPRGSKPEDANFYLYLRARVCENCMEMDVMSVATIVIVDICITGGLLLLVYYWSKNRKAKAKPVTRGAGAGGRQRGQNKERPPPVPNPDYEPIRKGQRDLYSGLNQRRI
T1 sequence (P04234 22-171, chain 2 of 3): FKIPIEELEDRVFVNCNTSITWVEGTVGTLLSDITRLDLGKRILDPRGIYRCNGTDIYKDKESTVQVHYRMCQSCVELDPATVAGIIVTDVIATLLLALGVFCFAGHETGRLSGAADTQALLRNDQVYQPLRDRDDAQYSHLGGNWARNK
T1 sequence (P09693 23-182, chain 3 of 3): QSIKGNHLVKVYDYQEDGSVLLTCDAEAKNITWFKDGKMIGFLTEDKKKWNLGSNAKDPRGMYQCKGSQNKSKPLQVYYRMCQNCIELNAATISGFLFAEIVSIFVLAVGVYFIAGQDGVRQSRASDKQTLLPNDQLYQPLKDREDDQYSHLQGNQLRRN

Row | % Positive [%] | gMFI [gMFI] | Binder
1 | 2 | 2430 | B1
2 | 50.2 | 6790 | B2
3 | 17.3 | 4180 | B3
4 | 92.5 | 37800 | B4
5 | 99.2 | 69800 | B5

These binders were tested against T1, human CD3 (TCR/CD3 complex on the cell …) (assay: flow cytometry, Pan-T cells, 10 ug/mL).

Row | % Positive [%] | gMFI [gMFI] | Binder
6 | 66.1 | 8340 | B1
7 | 99.5 | 43400 | B2
8 | 95.9 | 22000 | B3
9 | 99.8 | 188000 | B4
10 | 99.7 | 149000 | B5

What follows are binders tested against T1, human CD3 (TCR/CD3 complex on the cell …) (assay: flow cytometry, Jurkat WT cells, 1 ug/mL).

Row | gMFI [gMFI] | Binder
11 | 1950 | B1
12 | 3180 | B2
13 | 2510 | B3
14 | 8960 | B4
15 | 11300 | B5

Each binder was assayed against T1, human CD3 (TCR/CD3 complex on the cell …) (assay: flow cytometry, Jurkat WT cells, 10 ug/mL).

Row | gMFI [gMFI] | Binder
16 | 3760 | B1
17 | 9780 | B2
18 | 6110 | B3
19 | 22100 | B4
20 | 15900 | B5

What follows are binders tested against T1, human CD3 (TCR/CD3 complex on the cell …) (assay: flow cytometry, Jurkat WT gMFI over Jurkat KO gMFI, 1 ug/mL).

Row | Jurkat WT/KO (Fold) [fold] | Binder
21 | 1 | B1
22 | 1.5 | B2
23 | 1.2 | B3
24 | 3.6 | B4
25 | 5.3 | B5

What follows are binders tested against T1, human CD3 (TCR/CD3 complex on the cell …) (assay: flow cytometry, Jurkat WT gMFI over Jurkat KO gMFI, 10 ug/mL).

Row | Jurkat WT/KO (Fold) [fold] | Binder
26 | 2 | B1
27 | 4.4 | B2
28 | 3 | B3
29 | 8.6 | B4
30 | 7.2 | B5

Each binder was assayed against recombinant CD3 proteins (assay: Octet (BLI), bispecific antibody against recombinant CD3 proteins).

Row | Kd [nM] | Response | koff [s⁻¹] | kon [M⁻¹ s⁻¹] | Binder
31 | 11.7 | 0.09 | 0.00134 | 114000 | B6
32 | 85.9 | 0.25 | 0.0474 | 552000 | B7
